Test results: article PMC7045643, “Allosteric inhibition of CRISPR-Cas9 by bacteriophage-derived peptides” (Genome Biology, 2020)

Molecular target: Streptococcus pyogenes Cas9 (SpCas9) protein, wild type (Streptococcus pyogenes) (UniProt Q99ZW2)

“M13 phage major coat protein G8P periplasmic domain peptide (M13 G8PPD)” was tested. Which inhibition of the in vitro DNA cleavage activity of 50 nM SpCas9, peptide added before sgRNA (IC50) did it give?
The inhibition of the in vitro DNA cleavage activity of 50 nM SpCas9, peptide added before sgRNA (IC50) was 5 µM.
